Measured values taken from US12534533B2, “Anti-chemokine like receptor 1 humanized antibodies and their therapeutic applications” (OSE IMMUNOTHERAPEUTICS, priority 2019, dated 2026).

Legend:
[1] = test system: spontaneous type 1 diabetes in NOD mice; experiment: type 1 diabetes NOD model; format: in vivo; conditions: 20 μg/injection i.p. three times a week for 2 weeks
From the text: FIG. 5. Effect of an anti-CMKLR1 antibody on a mice type1 non-obese diabetes model. Mice develop spontaneous diabetes. […] A. Percentage of survival, B. individual representation of blood glucose concentration in mg/dL. C. pooled representation of blood glucose concentration in mg/dL.
8 weeks-old NOD female mice were obtained from Charles River laboratory. These mice develop a spontaneous type 1 diabetes at age between 12 to 20 weeks. The diabetes initiation can be measured by the high glycaemia.

[2] = test system: psoriasis induced by Aldara cream; format: in vivo, mice
Protocol: FIG. 6. Effect of anti-CMKLR1 agonist on an autoimmune disease such as mice psoriasis model. Aldara treated mice for 4 to 6 consecutive days were injected intra-peritoneally with: 2G1 (●) or isotype control antibody (x). A. thicknesses and B weight.
Aldara® cream which is known to induce psoriasis in mice was used on male C57Bl/6 mice (8-10-week old). Mice received a daily topical dose of Aldara. Treatments (anti-CMKLR1 agonist or control compound) were injected intra-peritoneally: […]

[3] = test system: spontaneous colitis in IL-10KO mice; experiment: IL10 KO spontaneous chronic inflammatory colitis model; format: in vivo; conditions: vs isotype control
Protocol: FIG. 4. Effect of an anti-CMKLR1 antibody on a IL10 KO mice chronic inflammatory colitis model. Mice KO for IL10 develop a spontaneous inflammatory colitis. They were treated with an Anti-CMKLR1 antibody (2G1) (□) or isotype control (hIgG1) (x) intra-peritoneally (25 μg/injection, 3 times a week). A. Animal weight loss during and after treatment. B. Animal score stool.
IL-10KO mice develop a spontaneous colitis from 20 weeks of age mostly due to the absence of regulatory T cells function through IL-10 secretion in the intestine. IL-10KO mice were followed-up three times a week from 18-week old for their weight loss and stool consistency which are clinical hallmarks of this pathology.

[4] = test system: ROS production by PMN from healthy volunteers; experiment: ROS test in PMN; format: cell-based, human; conditions: coated Ab at 10 μg/mL, after 5 h; FIG. 26C
Protocol: Neutrophils were isolated from blood of healthy volunteers and cultured for 24 h (Mortality analysis), or 4 h, 6 h, 11 h (Caspase-3 assay), or 5 h (ROS assay) on coated Iso ctrl (cross), chimeric anti-ChemR23 2G1 (square) or different humanized versions of the 2G1 (diamonds). Mortality of PMN was analyzed by incubating PMN with specific markers of the mortality and viability and then counted by picture analysis.
PMN from healthy volunteers were incubated in culture medium with coated Ab at 10 μg/mL for 24 h or 5 h and stained either with a dead/viability kit (LIVE/DEAD (Invitrogen)) or a specific marker of reactive oxygen species (ROS) respectively. The percentages of positive cells were obtained by analyzing the pictures with ImageJ software.

Mice dendritic cells = experiment: DCs maturation and differentiation, activation markers by FACS; format: cell-based
Protocol: FIG. 1. Effect of the anti-CMKLR1 variants 1G1, 2G1, 3G1 and 4G1 chimeric antibodies on the DCs maturation and differentiation. Mice dendritic cells were incubated during maturation phase (24 h or 48 h) followed by a differentiation phase with excipient or RvE1 or anti-CMKLR1 antibodies variants (mutations on positions 1 and 2 of SEQ ID No. 8, corresponding to the VH-CDR3: 1G1 (LL), 2G1 (LI), 3G1 (IL) or 4G1 (II) or isotype controls (hIgG1 or mIgG)). Cells were then stained for FACS analysis with cell marker antibodies: A. CD80-PE; B. CD86-FITC; C. CD103-PerCPCy5.5; D. I/Ab-APC. Mean of Fluorescence was determined in each condition. E and F represent the viability of the cells measured by FACS using LIVE/DEAD® kit from Life Technologies in each condition after 24 or 48 hours of maturation respectively.
FIG. 16. Study of the myeloid cell activation markers after CMKLR1 pathway activation. Dendritic cells incubated in excipient, RvE1, 2G1 or isotype control (hIgG1) were then stained for FACS analysis with marker antibodies: A. CD80-PE. B. CD86-FITC. C. CD103-PerCPCy5.5. D. CD40-PeCy7. E. I/Ab-APC. Mean of Fluorescence was determined in each condition.
Bone marrow cells were harvested and cultured in RPMI medium supplemented with 10% FBS, glutamine and antibiotics and the dendritic cell differentiation was induced by GM-CSF at 20 ng/ml for 7 days. Then, immature dendritic cells (iDC) were collected and cultured for 24 hours with LPS (100 ng/ml) to induce the maturation from iDC to mDC. Treatments were added during differentiation and maturation at 2 μg/ml.
Dendritic cells were resuspended in PBS-FBS-EDTA and incubated with live and dead (LIVE/DEAD® Fixable Dead Cell Stains Yellow-Life Technologies) for 30 minutes on ice. Staining of CD11c-BV711, CD11b-APCCy7, I/Ab-APC, CD103-PerCPCy5.5, CCR7-V450, CD40-PeCy7, CD80-PE, CD86-FITC (all provided by BD Pharmingen) were performed.

B1: 2G1: parental chimeric anti-CMKLR1 antibody: heavy chain variable domain SEQ ID No. 37, light chain variable domain SEQ ID No. 49 (antibody, V domains shown)
VH: EVQLVASGGGLVQPGGSLKLSCAASGFTFSSYGMSWVRQTPDRRLELVATINRYGGSTYYPDSVKGRFTISRDNAKNTLYLQMSSLKSEDTAMYYCPRLIYYGNEGDSWGQGTTLTVSS
VL: QIVLTQSPAIMSASPGEKVTMTCSASSSVSFMHWYQQKSGTSPKRWIYDTTKLTSGVPARFSGSGSGTFYSLTISSMEAEDAATYYCQQWNSKPPLTFGPGTKLELKR
- Percentage of survival ([1]; FIG. 5A): better survival percentage
- glycaemia (blood glucose concentration) ([1]; FIG. 5B-C): almost normal glycaemia
- thickness of the skin ([2]; after Aldara administration, e.g. day 15, FIG. 6A): reduces the thickness of the skin
- weight of the animals ([2]; mouse, in vivo): not impacted
- percentage of weight loss ([3]; 25 μg/injection i.p., 3 times a week for 2 weeks, FIG. 4A): lost less weight
- score stool ([3]; FIG. 4B): better score stool
- ROS production by PMN [4]: increase the ROS production
- viability of cells (Mice dendritic cells; LIVE/DEAD kit, after 24 or 48 hours of maturation, FIGS. 1E and 1F): enhanced
- expression of CD80, CD86, CD103, CD40 and IAb (Mice dendritic cells; compared to the excipient or isotype control, FIG. 16): strong decrease
- DCs activation and/or maturation (DCs expressing CD103 and IAb) (Mice dendritic cells; maturation 24 h or 48 h, FIG. 1): inhibit DCs activation and/or maturation in a stronger manner than other synthetized antibodies
